The values below come from patent US20210261654A1 (BEIJING BEYOND BIOTECHNOLOGY, published 2021).

In this test the target is T1, Recombinant human TNF-α (Sino Biological Inc., catalog number: 10602-HNAE) (human, UniProt P01375 77-233).
T1 construct: Bought protein; also called recombinant human TNF-α protein
The experiment in a line: SPR (Biacore T100), BY19.4 captured by anti-IgG on CM5 chip. For orientation: Surface plasmon resonance follows binding to a sensor surface in real time, without labels.

T1 sequence (P01375 77-233 limits assumed): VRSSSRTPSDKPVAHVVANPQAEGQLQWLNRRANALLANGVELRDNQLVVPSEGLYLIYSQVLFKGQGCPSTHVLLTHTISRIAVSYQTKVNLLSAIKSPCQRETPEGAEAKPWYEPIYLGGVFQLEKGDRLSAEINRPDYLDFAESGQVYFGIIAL

B1: anti-IL-17A antibody BY19.4 (antibody, human IgG4 S228P, kappa, V domains shown)
VH: QVQLVQSGAEVKKPGSSVKVSCKASGYSFTDYHIHWVRQAPGQGLEWMGVINPMYGTTDYNQRFKGRVTITADESTSTAYMELSSLRSEDTAVYYCARYDYFTGTGVYWGQGTLVTVSS
VL: DIVMTQTPLSLSVTPGQPASISCRSSRSLVHSRGNTYLHWYLQKPGQSPQLLIYKVSNRFIGVPDRFSGSGSGTDFTLKISRVEAEDVGVYYCSQSTHLPFTFGQGTKVEIKR
notes: also called control antibody BY19.4; BY19.4 (ixekizumab)
B1: the binding result is “no binding (tested: 7 nM to 600 nM tested)”.
